From article PMC9288512 (2022)

B1: VHH-B11 (monovalent camelid nanobody against hPCSK9) (VHH)
VHH: QVQLQESGGGSVQAGGSLRLSCTVSGYTYSSNCMGWFRQAPGKEHEGVASIYIGGGSTYYADSVKGRFTISQDNAKNTVYLQMNSLKPEDTAMYYCAVGCQGLVDFGYWDQGTQVTVSS
B2: Llama VHH-human IgG4 hinge linker-IgG4 Fc chimeric HcAb (VHH-B11-Fc) (Fc fusion)
chain: QVQLQESGGGSVQAGGSLRLSCTVSGYTYSSNCMGWFRQAPGKEHEGVASIYIGGGSTYYADSVKGRFTISQDNAKNTVYLQMNSLKPEDTAMYYCAVGCQGLVDFGYWDQGTQVTVSS

Experiments:
[1] = molecular target: T1, recombinant human proprotein convertase subtilisin/kexin 9 (hPCSK9), his-tagged (human, UniProt Q8NBP7 153-692); test: SPR
T1 sequence (Q8NBP7 153-692): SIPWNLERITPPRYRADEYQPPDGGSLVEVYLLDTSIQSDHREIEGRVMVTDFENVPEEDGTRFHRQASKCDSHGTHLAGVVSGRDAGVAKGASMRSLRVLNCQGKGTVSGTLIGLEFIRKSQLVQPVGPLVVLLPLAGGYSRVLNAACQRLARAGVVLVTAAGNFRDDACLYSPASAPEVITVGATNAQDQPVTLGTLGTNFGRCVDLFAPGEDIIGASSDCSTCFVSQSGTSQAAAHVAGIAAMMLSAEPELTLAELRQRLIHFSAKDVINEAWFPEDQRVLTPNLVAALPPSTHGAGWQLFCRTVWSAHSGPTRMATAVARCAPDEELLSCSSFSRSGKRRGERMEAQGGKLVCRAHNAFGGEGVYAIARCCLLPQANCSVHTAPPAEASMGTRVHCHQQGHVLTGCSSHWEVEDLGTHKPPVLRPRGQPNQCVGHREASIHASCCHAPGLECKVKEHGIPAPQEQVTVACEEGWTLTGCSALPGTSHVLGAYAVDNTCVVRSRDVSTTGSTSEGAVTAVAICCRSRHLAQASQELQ

[2] = molecular target: T1, recombinant human proprotein convertase …; test: SPR; remark: listed apart in the source

Binder	Kd [1] [nM]	koff [2] [s⁻¹]
B1	~5.01	0.000174
B2	0.689	0.00123
